From patent EP4218932A2

B1: 1252_P01_C08 scFv (scFv)
scFv: EVQLLESGGGLVQPGRSLRLSCAASGFTVSSNYMSWVRQAPGKGLEWVSVIYSGGSTYYADSVKGRFTISRDNSKNTLYLQMNSLRAEDTAVYYCASPIELGAFDIWGQGTLVTVSSGGGGSGGGGSGGGASSYELTQPPSVSVAPGKTARITCGGNNIGSQSVHWYQQKPGQAPMLVIYYDSDRPSGIPERFSGSNSGNTATLTISRVEAGDEADYYCQVWDSSSDHVVFGGGTKLTVL
B2: 1245_P01_E07 scFv (scFv)
scFv: QVQLVESGGGLVKPGGSLRLSCAASGFTFSDYYMSWIRQAPGKGLEWVSYISSSGSTIYYADSVKGRFTISRDNAKNSLYLQMNSLRAEDTAVYYCARVDYADAFDIWGQGTLVTVSSGGGGSGGGGSGGGASDIQMTQSPSSLSASVGDRVTIACRAGQSIGTYLNWYQQKPGKAPKLLIYVASSLQSGVPSRFSGSGSGTEFTLTISSLQPEDFATYYCQQSYSTLLTFGRGTKVEIK
B3: 1141_P01_E01 scFv (scFv)
scFv: QVQLVQSGAEVKKPGESLKISCKGSGYSFTSYWIGWVRQMPGKGLEWMGIIYPGDSDTRYSPSFQGQVTISADKSISTAYLQWSSLKASDTAMYYCARHQVDTRTADYWGQGTLVTVSSGGGGSGGGGSGGGASQSALTQPASVSGSPGQSVTISCTGTRSDVGGYNYVSWYQHHPGKAPKLMIYEVSNRPSGVSNRFSGSKSGNTASLTISGLQAEDEADYYCSSYTSTSTLVFGGGTKLTVL
B4: 1251_P02_G10 scFv (scFv)
scFv: EVQLVESGGGLVQPGGSLRLSCAASGFTFSDYYMSWIRQAPGKGLEWVSYISSSGSTIYYADSVKGRFTISRDNAKNSLYLQMNSLRAEDTAVYYCARHSWNDAFDIWGRGTLVTVSSGGGGSGGGGSGGGASDIQMTQSPSSLSASVGDRVTITCRASQSISSHLNWYQQKPGKAPKLLIYAASSLQSGVPSRFSASGSGTDFTLTISSLQPEDFATYYCQQSYSTLLTFGGGTKVEIK
B5: 1251_P02_C05 scFv (scFv)
scFv: EVQLLESGGGLVQPGGSLRLSCAASGFTFSSYAMSWVRQAPGKGLEWVSAISGGGGTTYSSDSVKGRFTISRDNSKNTLYLQMNSLRAEDTAVYYCARDSGVAFDIWGQGTLVTVSSGGGGSGGGGSGGGASDIQMTQSPSFLSASVGDRVTITCRASQNIRTWLAWYQQKPGRAPKLLIYDASSLESGVPSRFSGSGSGTDFTLTISSLQPEDFATYYCQQFKRYPPTFGLGTKVEIK
B6: 1245_P02_G04 scFv (scFv)
scFv: QVQLQQSGPGLVKPSQTLSLTCAISGDSVSSKSAAWNWIRQSPSRGLEWLGRTYYRSKWSTDYAASVKSRITINPDTSKNQLSLQLNSVTPEDTAVYYCARTWSGYVDVWGQGTLVTVSSGGGGSGGGGSGGGASDIQMTQSPPALSASVGDRVTITCRASQDINDWLAWYQHKPGKAPKLLIYDASSLESGVPSRFSGSGSGTEFTLTISSLQPDDFATYYCQQSYSTPQVTFGQGTRLEIK
B7: 1245_P02_F07 scFv (scFv)
scFv: QVQLQQSGPGLVKPSQTLSLTCVISGDSVSSNSAAWNWIRQSPSRGLEWLGRTYYRSKWYNDYAVSVKSRITINPDTSKNQFSLQLNSVTPEDTAVYYCARDYYYSMDVWGQGTMVTVSSGGGGSGGGGSGGGASDIQMTQSPSTLSASVGDRVTITCRASQSISSWLAWYQQKPGKAPKLLIYDASSLESGVPLRFSGSGSGTEFTLTISSLQPDDFATYYCQQSHSHPPTFGPGTKVDIK
B8: 1139_P01_E04 scFv (scFv)
scFv: QVQLQQSGPGLVKPSQTLSLTCAISGDSVSSNSAAWNWIRQSPSRGLEWLGRTYYRSKWYNDYAVSVRSRITINPDTSKNQFSLQLNSVTPEDTAVYYCARSWNDAFDIWGQGTTVTVSSGGGGSGGGGSGGGASDIVMTQSPSTLSASIGDRVTITCRAGQSISTWLAWYQQKPGKAPKLLIYDASSLESGVPLRFSGSGSGTDFTLTISSLQPEDFATYYCQQSYSTPLTFGGGTKVEIK
B9: 1245_P01_G09 scFv (scFv)
scFv: QVQLQQSGPGLVKPSQTLSLTCAISGDSVSSNSAAWNWIRQSPSRGLEWLGRTYYGSKWYNEYALSVKSRIIINPDTSKNQFSLQLNSVTPEDTAVYYCARDYYYSMDVWGQGTLVTVSSGGGGSGGGGSGGGASDIVMTQSPSTLSASIGDRVTITCRAGQSISTWLAWYQQKPGKAPKLLIYDASSLESGVPLRFSGSGSGTEFTLAISSLQPDDFATYYCQQSYSTPVTFGQGTKVEIK

Each binder was assayed against L1 (DV1-GV4) (human) (assay: DELFIA affinity ranking, signal with 100 nM biotinylated L1).
Sequence of L1 (DV1-GV4) (human) (chain, as listed by the source, chain 1 of 2): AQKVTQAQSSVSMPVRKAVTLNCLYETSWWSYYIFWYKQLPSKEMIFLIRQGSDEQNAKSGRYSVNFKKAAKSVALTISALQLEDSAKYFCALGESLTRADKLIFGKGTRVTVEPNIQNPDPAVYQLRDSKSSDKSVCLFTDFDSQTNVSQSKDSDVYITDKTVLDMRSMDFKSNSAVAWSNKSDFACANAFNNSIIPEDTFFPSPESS
Sequence of L1 (DV1-GV4) (human) (chain, as listed by the source, chain 2 of 2): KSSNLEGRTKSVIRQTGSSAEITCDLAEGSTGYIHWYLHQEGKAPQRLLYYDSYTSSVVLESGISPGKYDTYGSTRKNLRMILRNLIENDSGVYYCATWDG
Work on B1 yielded a 100 nM L1 of 1980. B2 gave a 100 nM L1 of 163000. With B3 the 100 nM L1 was 137000. With B4 the 100 nM L1 was 17100. Binder B5 has a 100 nM L1 of 65300. In the case of B6, the 100 nM L1 is reported as 5900. B7 was tested, and the 100 nM L1 was 10400. B8 gave a 100 nM L1 of 23800. Binder B9 has a 100 nM L1 of 18400.
